In one data set the test system is MCF7. Kind of data set: percentage of EdU-negative (G0-arrested) nuclei per well, 72 h; higher = more G0 arrest. As to conditions: reference: sequence is the full UniProt precursor, the tested protein was the secreted form or ectodomain.
The subject of a further data set is hTERT-HMEC. The data set is described as above. Particulars: reference: sequence is the full UniProt precursor, the tested protein was the secreted form or ectodomain.
Where [1] appears, read: protein concentration 0.0224225 µM.
Setting [2] is: protein concentration 0.0243425 µM.
Setting [3] is: protein concentration 0.028825 µM.
Setting [4] is: protein concentration 0.224225 µM.
Where [5] appears, read: protein concentration 0.243425 µM.
Where [6] appears, read: protein concentration 0.28825 µM.
Setting [7] is: protein concentration 0.0085 µM.
Where [8] appears, read: protein concentration 0.0301275 µM.
[9] abbreviates: protein concentration 0.301275 µM.
[10] abbreviates: protein concentration 0.03125 µM.
The mark [11] stands for this setting: protein concentration 0.3125 µM.

± gives the standard deviation of the averaged measurements.

The source of these data is the supplement of paper PMC11316812.
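Also: secreted proteins added to cultured cells, EdU pulse at the end, nuclei found by Hoechst imaging, EdU status from nuclear versus surrounding ring intensity ratio, PBS as neutral control.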

Consider “MRACISLVLAVLCGLAWAGKIESCASRCNEKFNRDAACQCDRRCLWHGNCCEDYEHLCTEDHKESEPLPQLEEETEEALASNLYSAPTSCQGRCYEAFDKHHQCHCNARCQEFGNCCKDFESLCSDHEVSHSSDAITKEEIQSISEKIYRADTNKAQKEDIVLNSQNCISPSETRNQVDRCPKPLFTYVNEKLFSKPTYAAFINLLNNYQRATGHGEHFSAQELAEQDAFLREIMKTAVMKELYSFLHHQNRYGSEQEFVDDLKNMWFGLYSRGNEEGDSSGFEHVFSGEVKKGKVTGFHNWIRFYLEEKEGLVDYYSHIYDGPWDSYPDVLAMQFNWDGYYKEVGSAFIGSSPEFEFALYSLCFIARPGKVCQLSLGGYPLAVRTYTWDKSTYGNGKKYIATAYIVSST”, for which the “percentage of EdU-negative” value with MCF7 (setting [1]) turned out to be 25.11 ± 0.21%; in the data set with MCF7 (setting [2]), 25.2 ± 1.4%; in the data set on MCF7 (setting [3]), 24.16 ± 0.045%; in the data set on MCF7 (setting [4]), 28.6 ± 2.5%; in the data set with MCF7 (setting [5]), 27.3 ± 0.39%; in the data set on MCF7 (setting [6]), 27.382 ± 0.0011%. Further, the “percentage of EdU-negative” value worked out at 5.37 ± 0.81% with hTERT-HMEC (setting [1]); 4.65 ± 0.23% in the data set on hTERT-HMEC (setting [2]); 5.03 ± 0.15% with hTERT-HMEC (setting [3]); 5.94 ± 0.48% with hTERT-HMEC (setting [4]); 8.43 ± 1.2% in the data set on hTERT-HMEC (setting [5]); 6.74 ± 0.95% in the data set on hTERT-HMEC (setting [6]).

Consider “MRALEGPGLSLLCLVLALPALLPVPAVRGVAETPTYPWRDAETGERLVCAQCPPGTFVQRPCRRDSPTTCGPCPPRHYTQFWNYLERCRYCNVLCGEREEEARACHATHNRACRCRTGFFAHAGFCLEHASCPPGAGVIAPGTPSQNTQCQPCPPGTFSASSSSSEQCQPHRNCTALGLALNVPGSSSHDTLCTSCTGFPLSTRVPGAEECERAVIDFVAFQDISIKRLQRLLQALEAPEGWGPTPRAGRAALQLKLRRRLTELLGAQDGALLVRLLQALRVARMPGLERSVRERFLPVH”, for which the “percentage of EdU-negative” value with MCF7 (setting [7]) was 22.9 ± 1.3%; in the data set on MCF7 (protein concentration 0.085 µM), 27.9 ± 2.1%; in the data set on hTERT-HMEC (setting [7]), 4.68 ± 0.12%; with hTERT-HMEC (protein concentration 0.085 µM) it was 8.46 ± 1.8%.

Take “MRALLLLGFLLVSLESTLSIPPWEAPKEHKYKAEEHTVVLTVTGEPCHFPFQYHRQLYHKCTHKGRPGPQPWCATTPNFDQDQRWGYCLEPKKVKDHCSKHSPCQKGGTCVNMPSGPHCLCPQHLTGNHCQKEKCFEPQLLRFFHKNEIWYRTEQAAVARCQCKGPDAHCQRLASQACRTNPCLHGGRCLEVEGHRLCHCPVGYTGAFCDVDTKASCYDGRGLSYRGLARTTLSGAPCQPWASEATYRNVTAEQARNWGLGGHAFCRNPDNDIRPWCFVLNRDRLSWEYCDLAQCQTPTQAAPPTPVSPRLHVPLMPAQPAPPKPQPTTRTPPQSQTPGALPAKREQPPSLTRNGPLSCGQRLRKSLSSMTRVVGGLVALRGAHPYIAALYWGHSFCAGSLIAPCWVLTAAHCLQDRPAPEDLTVVLGQERRNHSCEPCQTLAVRSYRLHEAFSPVSYQHDLALLRLQEDADGSCALLSPYVQPVCLPSGAARPSETTLCQVAGWGHQFEGAEEYASFLQEAQVPFLSLERCSAPDVHGSSILPGMLCAGFLEGGTDACQGDSGGPLVCEDQAAERRLTLQGIISWGSGCGDRNKPGVYTDVAYYLAWIREHTVS”: the “percentage of EdU-negative” value worked out at 27.06 ± 0.031% with MCF7 (protein concentration 0.009 µM), 27.973 ± 0.024% in the data set with MCF7 (protein concentration 0.09 µM), 5.23 ± 0.56% in the data set with hTERT-HMEC (protein concentration 0.009 µM) and 49.1 ± 0.6% with hTERT-HMEC (protein concentration 0.09 µM).

Regarding “MRALRDRAGLLLCVLLLAALLEAALGLPVKKPRLRGPRPGSLTRLAEVSASPDPRPLKEEEEAPLLPRTHLQAEPHQHGCWTVTEPAAMTPGNATPPRTPEVTPLRLELQKLPGLANTTLSTPNPDTQASASPDPRPLREEEEARLLPRTHLQAELHQHGCWTVTEPAALTPGNATPPRTQEVTPLLLELQKLPELVHATLSTPNPDNQVTIKVVEDPQAEVSIDLLAEPSNPPPQDTLSWLPALWSFLWGDYKGEEKDRAPGEKGEEKEEDEDYPSEDIEGEDQEDKEEDEEEQALWFNGTTDNWDQGWLAPGDWVFKDSVSYDYEPQKEWSPWSPCSGNCSTGKQQRTRPCGYGCTATETRTCDLPSCPGTEDKDTLGLPSEEWKLLARNATDMHDQDVDSCEKWLNCKSDFLIKYLSQMLRDLPSCPCAYPLEAMDSPVSLQDEHQGRSFRWRDASGPRERLDIYQPTARFCLRSMLSGESSTLAAQHCCYDEDSRLLTRGKGAGMPNLISTDFSPKLHFKFDTTPWILCKGDWSRLHAVLPPNNGRACTDNPLEEEYLAQLQEAKEY [Q6H9L7]”, the “percentage of EdU-negative” value came out at 24.4 ± 0.93% in the data set with MCF7 (setting [8]), 28.4 ± 1.3% in the data set on MCF7 (setting [9]), 5.26 ± 0.1% in the data set with hTERT-HMEC (setting [8]) and 5.07 ± 0.18% in the data set on hTERT-HMEC (setting [9]).

Consider “MRALVLLLSLFLLGGQAQHVSDWTYSEGALDEAHWPQHYPACGGQRQSPINLQRTKVRYNPSLKGLNMTGYETQAGEFPMVNNGHTVQISLPSTMRMTVADGTVYIAQQMHFHWGGASSEISGSEHTVDGIRHVIEIHIVHYNSKYKSYDIAQDAPDGLAVLAAFVEVKNYPENTYYSNFISHLANIKYPGQRTTLTGLDVQDMLPRNLQHYYTYHGSLTTPPCTENVHWFVLADFVKLSRTQVWKLENSLLDHRNKTIHNDYRRTQPLNHRVVESNFPNQEYTLGSEFQFYLHKIEEILDYLRRALN”, for which the “percentage of EdU-negative” value with MCF7 (setting [10]) is 24.6 ± 1.3%; in the data set on MCF7 (setting [11]), 23.7 ± 0.28%; in the data set with hTERT-HMEC (setting [10]), 5.04 ± 0.54%; in the data set with hTERT-HMEC (setting [11]) it was 4.6 ± 0.89%.
